B1: Human Rap1 isoform Rap1B (residues 1-167) bound to GMP-PNP (domain or fragment, UniProt P61224 1-167, looked up)
chain: MREYKLVVLGSGGVGKSALTVQFVQGIFVEKYDPTIEDSYRKQVEVDAQQCMLEILDTAGTEQFTAMRDLYMKNGQGFALVYSITAQSTFNDLQDLREQILRVKDTDDVPMILVGNKCDLEDERVVGKEQGQNLARQWNNCAFLESSAKSKINVNEIFYDLVRQINR

Experiments:
[1] = biological target: microtubules (U2OS cells) (human (endogenous in U2OS)) (UniProt P07437); assay: co-sedimentation
[2] = biological target: KRIT1(R452E) FERM domain, residues 417-736 (human, UniProt O00522 417-736, R452E); assay: ITC
Chain of KRIT1(R452E) FERM domain, residues 417-736 (O00522 417-736 R452E): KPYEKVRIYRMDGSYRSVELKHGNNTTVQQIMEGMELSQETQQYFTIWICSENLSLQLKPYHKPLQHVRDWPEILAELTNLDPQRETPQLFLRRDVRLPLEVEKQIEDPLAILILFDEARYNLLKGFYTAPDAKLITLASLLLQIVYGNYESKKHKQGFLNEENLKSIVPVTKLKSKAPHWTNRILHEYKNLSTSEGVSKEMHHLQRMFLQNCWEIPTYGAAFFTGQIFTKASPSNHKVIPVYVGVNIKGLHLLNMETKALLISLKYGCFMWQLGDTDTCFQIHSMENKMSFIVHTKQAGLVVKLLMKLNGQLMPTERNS

[3] = biological target: KRIT1 FERM domain, residues 417-736 (wild type) (human, UniProt O00522 417-736); assay: ITC
Chain of KRIT1 FERM domain, residues 417-736 (wild type) (O00522 417-736): as the sequence (O00522 417-736 R452E) above, with E36R counted along it

Chain of microtubules (U2OS cells) (human (endogenous in U2OS)) (P07437 whole entry, looked up, the tested form may be a part): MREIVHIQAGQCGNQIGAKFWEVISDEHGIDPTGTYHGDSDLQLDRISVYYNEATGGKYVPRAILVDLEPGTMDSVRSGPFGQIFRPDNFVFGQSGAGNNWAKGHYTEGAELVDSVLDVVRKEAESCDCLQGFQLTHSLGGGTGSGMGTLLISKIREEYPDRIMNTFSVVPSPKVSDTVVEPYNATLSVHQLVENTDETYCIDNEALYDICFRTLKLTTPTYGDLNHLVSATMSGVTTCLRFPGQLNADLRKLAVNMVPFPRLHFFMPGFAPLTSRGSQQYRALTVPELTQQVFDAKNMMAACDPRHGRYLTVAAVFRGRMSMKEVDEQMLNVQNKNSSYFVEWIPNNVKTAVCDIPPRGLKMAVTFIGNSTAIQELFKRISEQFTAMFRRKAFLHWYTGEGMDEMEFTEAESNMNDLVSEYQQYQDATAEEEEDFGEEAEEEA

Row | Molecule | fold increase in association with microtubules over wild-type KRIT1 [1] [fold] | Kd [2] [µM] | Kd [3] [µM]
1 | GFP-fused KRIT1(R452E) (U2OS) (from UniProt O00522 1-736) (natural protein) | 8 | – | –
2 | B1 | – | 67 ± 18.7 | 1.8 ± 0.25

— article PMC3135476 (Molecular Biology of the Cell, 2011)
